Test results reported in publication PMC9103804, “RNA and Protein Determinants Mediate Differential Binding of miRNAs by a Viral Suppressor of RNA Silencing Thus Modulating Antiviral Immune Responses in Plants” (International Journal of Molecular Sciences, 2022).

Legend:
[1] = target: T1, CIRV p19 (Carnation Italian ringspot virus, UniProt Q66104 1-172); experiment: EMSA; conditions: protein: recombinant, tags: GST tag removed (PreScission, pGEX-6P-1), chain copies: 2, label: 5'-32P, 3' overhangs 2 nt
T1 sequence: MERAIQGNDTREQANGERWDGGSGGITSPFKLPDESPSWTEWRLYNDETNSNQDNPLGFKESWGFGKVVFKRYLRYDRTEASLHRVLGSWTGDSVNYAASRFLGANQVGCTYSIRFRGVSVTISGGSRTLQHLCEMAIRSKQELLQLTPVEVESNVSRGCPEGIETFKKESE

[2] = target: T2, TAV 2b (Tomato aspermy virus, UniProt Q8UYT3 1-95); experiment: EMSA; conditions: protein: recombinant; tags: His-SUMO removed; chain copies: 2; label: 5'-32P; 3' overhangs 2 nt
T2 sequence: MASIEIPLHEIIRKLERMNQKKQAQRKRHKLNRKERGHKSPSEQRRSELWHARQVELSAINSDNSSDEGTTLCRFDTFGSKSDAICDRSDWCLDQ

[3] = target: T2, TAV 2b; experiment: competition; Kc vs labeled gf698; conditions: protein: recombinant, tags: His-SUMO removed, chain copies: 2, label: 5'-32P, 3' overhangs 2 nt
[4] = target: the molecule itself; experiment: AUC; analytical ultracentrifugation at protein concentrations of 1.2-13 uM (CIRV p19); data not shown; procedure as in ref. 36

B1: miR162-11gU/9*C (dsRNA)
RNA 1: UCGAUAAACCUCUGCAUCCAG
RNA 2: GGAUGCAGCGGUUCAUCGAUC
modifications: 5'-phosphate
How did the Kd ([1]; C/U mismatch) turn out when B1 was run?
Its Kd is 0.22 ± 0.03 nM.

B2: miR162-14gU/6*G (dsRNA)
RNA 1: UCGAUAAACCUCUUCAUCCAG
RNA 2: GGAUGGAGAGGUUCAUCGAUC
modifications: 5'-phosphate
B2 was tested. Which Kd ([1]; G-U wobble) did it give?
The Kd was 0.45 ± 0.08 nM.

B3: gf698 siRNA (dsRNA)
RNA 1: UAGUUCAUCCAUGCCAUGUGU
RNA 2: ACAUGGCAUGGAUGAACUAUA
modifications: 5'-phosphate
With B3 as the binder, how does the Kd [2] read?
The Kd was 0.68 ± 0.15 nM.

And the Kd [1]?
Its Kd is 0.06 ± 0.04 nM.

What about the Ki [3] of the same binder?
Its Ki is 0.53 ± 0.08 nM.

B4: AtmiR168a variant 3 (dsRNA)
RNA 1: UCGCUUGGUGCAGGUCGGGAA
RNA 2: CCCGCCCUGCACCAACUGAAU
modifications: 5'-phosphate
With B4 as the binder, how does the Kd ([1]; mismatches) read?
Its Kd is 1 ± 0.24 nM.

And the Ki ([3]; mismatches)?
Its Ki is 2.2 ± 0.4 nM.

B5: miR162-12gC/8*C (dsRNA)
RNA 1: UCGAUAAACCUCUGCAUCCAG
RNA 2: GGAUGCACAGGUUCAUCGAUC
modifications: 5'-phosphate
How did the Kd ([1]; C/C mismatch) turn out when B5 was run?
The Kd was 0.28 ± 0.24 nM.

B6: miR162-17gU/3*C (dsRNA)
RNA 1: UCGAUAAACCUCUGCAUCCAG
RNA 2: GGCUGCAGAGGUUCAUCGAUC
modifications: 5'-phosphate
How did the Kd ([1]; C/U mismatch) turn out when B6 was run?
Its Kd is 0.3 ± 0.17 nM.

B7: miR162-0 (dsRNA)
RNA 1: UCGAUAAACCUCUGCAUCCAG
RNA 2: GGAUGCAGAGGUUCAUCGAUC
modifications: 5'-phosphate
Which Kd [1] does the source give for B7 here?
Its Kd is 0.15 ± 0.06 nM.

B8: AtmiR168a (dsRNA)
RNA 1: UCGCUUGGUGCAGGUCGGGAA
RNA 2: CCCGCCUUGCAUCAACUGAAU
modifications: 5'-phosphate
With B8 as the binder, how does the Kd ([1]; mismatches and G-U wobbles) read?
Its Kd is 2.49 ± 0.88 nM.

And the Ki ([3]; mismatches and G-U wobbles)?
Its Ki is 12.1 ± 0.7 nM.

B9: AtmiR162 (dsRNA)
RNA 1: UCGAUAAACCUCUGCAUCCAG
RNA 2: GGAGGCAGCGGUUCAUCGAUC
modifications: 5'-phosphate
Which Kd ([1]; mismatches) does the source give for B9 here?
Its Kd is 0.06 ± 0.02 nM.

What about the Ki ([3]; mismatches) of the same binder?
Its Ki is 0.67 ± 0.09 nM.

B10: miR162-12gU/8*G (dsRNA)
RNA 1: UCGAUAAACCUUUGCAUCCAG
RNA 2: GGAUGCAGAGGUUCAUCGAUC
modifications: 5'-phosphate
Which Kd ([1]; G-U wobble) does the source give for B10 here?
Its Kd is 1.93 ± 0.13 nM.

B11: p19 protein of Carnation Italian ringspot virus (CIRV) (natural protein)
chain: MERAIQGNDTREQANGERWDGGSGGITSPFKLPDESPSWTEWRLYNDETNSNQDNPLGFKESWGFGKVVFKRYLRYDRTEASLHRVLGSWTGDSVNYAASRFLGANQVGCTYSIRFRGVSVTISGGSRTLQHLCEMAIRSKQELLQLTPVEVESNVSRGCPEGIETFKKESE
notes: p19 suppressor of RNA silencing, Carnation Italian ringspot virus (Tombusvirus); the p19 ORF cloned into pGEX-6P-1, GST removed with PreScission protease; Residues of the vector may be left at the N-terminus after PreScission cleavage (surmised); also called CIRV p19; p19 wt; source: E. coli BL21 (DE3) RIPL, purified (GSTrap, PreScission cleavage, Resource Q anion exchange)
B11 was tested. Which “stoichiometry N” value [4] did it give?
Its value is 2.

B12: miR162-18gU/2*G (dsRNA)
RNA 1: UCGAUAAACCUCUGCAUUCAG
RNA 2: GGAUGCAGAGGUUCAUCGAUC
modifications: 5'-phosphate
Which Kd ([1]; G-U wobble) does the source give for B12 here?
Its Kd is 0.13 ± 0.03 nM.

B13: miR162-16gU/4*G (dsRNA)
RNA 1: UCGAUAAACCUCUGCUUCCAG
RNA 2: GGAGGCAGAGGUUCAUCGAUC
modifications: 5'-phosphate
Which Kd ([1]; G-U wobble) does the source give for B13 here?
The Kd was 0.17 ± 0.05 nM.

B14: miR162-12gG/8*G (dsRNA)
RNA 1: UCGAUAAACCUGUGCAUCCAG
RNA 2: GGAUGCAGAGGUUCAUCGAUC
modifications: 5'-phosphate
For B14, which Kd ([1]; G/G mismatch) is on record?
Its Kd is 0.07 ± 0.04 nM.

B15: miR162-15gU/5*G (dsRNA)
RNA 1: UCGAUAAACCUCUGUAUCCAG
RNA 2: GGAUGCAGAGGUUCAUCGAUC
modifications: 5'-phosphate
How did the Kd ([1]; G-U wobble) turn out when B15 was run?
The Kd was 0.1 ± 0.01 nM.

B16: miR162-13gU/7*G (dsRNA)
RNA 1: UCGAUAAACCUCUGCAUCCAG
RNA 2: GGAUGCGGAGGUUCAUCGAUC
modifications: 5'-phosphate
For B16, which Kd ([1]; G-U wobble) is on record?
Its Kd is 1.82 ± 0.38 nM.

B17: miR162-14gG/6*A (dsRNA)
RNA 1: UCGAUAAACCUCUGCAUCCAG
RNA 2: GGAUGAAGAGGUUCAUCGAUC
modifications: 5'-phosphate
For B17, which Kd ([1]; A/G mismatch) is on record?
Its Kd is 0.86 ± 0.49 nM.

B18: miR162-10gU/10*G (dsRNA)
RNA 1: UCGAUAAACUUCUGCAUCCAG
RNA 2: GGAUGCAGAGGUUCAUCGAUC
modifications: 5'-phosphate
How did the Kd ([1]; G-U wobble) turn out when B18 was run?
Its Kd is 0.63 ± 0.21 nM.

B19: miR162-12gG/8*U (dsRNA)
RNA 1: UCGAUAAACCUGUGCAUCCAG
RNA 2: GGAUGCAUAGGUUCAUCGAUC
modifications: 5'-phosphate
B19 was tested. Which Kd ([1]; U-G wobble) did it give?
Its Kd is 0.31 ± 0.08 nM.

B20: miR162-10gC/10*A (dsRNA)
RNA 1: UCGAUAAACCUCUGCAUCCAG
RNA 2: GGAUGCAGAAGUUCAUCGAUC
modifications: 5'-phosphate
B20 was tested. Which Kd ([1]; A/C mismatch) did it give?
Its Kd is 0.35 ± 0.24 nM.

B21: miR162-18gC/2*C (dsRNA)
RNA 1: UCGAUAAACCUCUGCAUCCAG
RNA 2: GCAUGCAGAGGUUCAUCGAUC
modifications: 5'-phosphate
B21 was tested. Which Kd ([1]; C/C mismatch) did it give?
Its Kd is 0.12 ± 0.08 nM.

B22: miR162-15gC/5*C (dsRNA)
RNA 1: UCGAUAAACCUCUGCAUCCAG
RNA 2: GGAUCCAGAGGUUCAUCGAUC
modifications: 5'-phosphate
With B22 as the binder, how does the Kd ([1]; C/C mismatch) read?
The Kd was 0.23 ± 0.08 nM.

B23: miR162-11gU/9*G (dsRNA)
RNA 1: UCGAUAAACCUCUGCAUCCAG
RNA 2: GGAUGCAGGGGUUCAUCGAUC
modifications: 5'-phosphate
How did the Kd ([1]; G-U wobble) turn out when B23 was run?
The Kd was 0.14 ± 0.12 nM.

B24: AtmiR168a variant 2 (dsRNA)
RNA 1: UCGCUUGGUGCAGGUCGGGAA
RNA 2: CCCGCCUUGCACCAACUGAAU
modifications: 5'-phosphate
Which Kd ([1]; mismatches and G-U wobbles) does the source give for B24 here?
Its Kd is 0.71 ± 0.28 nM.

What about the Ki ([3]; mismatches and G-U wobbles) of the same binder?
The Ki was 1.1 ± 0.2 nM.

B25: miR162-13gU/7*C (dsRNA)
RNA 1: UCGAUAAACCUCUGCAUCCAG
RNA 2: GGAUGCCGAGGUUCAUCGAUC
modifications: 5'-phosphate
How did the Kd ([1]; C/U mismatch) turn out when B25 was run?
The Kd was 1.01 ± 0.1 nM.

B26: miR162-13gG/7*U (dsRNA)
RNA 1: UCGAUAAACCUCGGCAUCCAG
RNA 2: GGAUGCUGAGGUUCAUCGAUC
modifications: 5'-phosphate
With B26 as the binder, how does the Kd ([1]; U-G wobble) read?
The Kd was 1.53 ± 0.49 nM.

B27: miR162-17gU/3*G (dsRNA)
RNA 1: UCGAUAAACCUCUGCAUCCAG
RNA 2: GGGUGCAGAGGUUCAUCGAUC
modifications: 5'-phosphate
For B27, which Kd ([1]; G-U wobble) is on record?
The Kd was 0.09 ± 0.04 nM.

B28: miR162-10gC/10*C (dsRNA)
RNA 1: UCGAUAAACCUCUGCAUCCAG
RNA 2: GGAUGCAGACGUUCAUCGAUC
modifications: 5'-phosphate
B28 was tested. Which Kd ([1]; C/C mismatch) did it give?
Its Kd is 1.73 ± 0.57 nM.

B29: miR162-12gC/8*A (dsRNA)
RNA 1: UCGAUAAACCUCUGCAUCCAG
RNA 2: GGAUGCAAAGGUUCAUCGAUC
modifications: 5'-phosphate
Which Kd ([1]; A/C mismatch) does the source give for B29 here?
The Kd was 0.16 ± 0.03 nM.

B30: miR162-16gA/4*G (dsRNA)
RNA 1: UCGAUAAACCUCUGCAUCCAG
RNA 2: GGAGGCAGAGGUUCAUCGAUC
modifications: 5'-phosphate
With B30 as the binder, how does the Kd ([1]; G/A mismatch) read?
The Kd was 0.38 ± 0.13 nM.

B31: AtmiR168a variant 4 (dsRNA)
RNA 1: UCGCUUGGUGCAGGUCGGGAA
RNA 2: CCCGACCUGCAUCAAAUGAAU
modifications: 5'-phosphate
Which Kd ([1]; G-U wobbles) does the source give for B31 here?
The Kd was 2.65 ± 0.49 nM.

B32: AtmiR168a variant 6 (dsRNA)
RNA 1: UCGCUUGGUGCAGGUCGGGAA
RNA 2: CCCGACCUGCACCAAGCGAAU
modifications: 5'-phosphate
Which results are given for B32?
Kd [1]: 0.34 ± 0.16 nM; Ki [3]: 0.38 ± 0.05 nM

B33: miR162-14gG/6*U (dsRNA)
RNA 1: UCGAUAAACCUCUGCAUCCAG
RNA 2: GGAUGUAGAGGUUCAUCGAUC
modifications: 5'-phosphate
How did the Kd ([1]; U-G wobble) turn out when B33 was run?
The Kd was 0.15 ± 0.09 nM.

B34: miR162-19gC/1*C (dsRNA)
RNA 1: UCGAUAAACCUCUGCAUCCAG
RNA 2: CGAUGCAGAGGUUCAUCGAUC
modifications: 5'-phosphate
Which Kd ([1]; C/C mismatch) does the source give for B34 here?
The Kd was 0.34 ± 0.15 nM.

B35: miR162-19gU/1*G (dsRNA)
RNA 1: UCGAUAAACCUCUGCAUCUAG
RNA 2: GGAUGCAGAGGUUCAUCGAUC
modifications: 5'-phosphate
For B35, which Kd ([1]; G-U wobble) is on record?
Its Kd is 0.15 ± 0.12 nM.

B36: AtmiR168a variant 1 (dsRNA)
RNA 1: UCGCUUGGUGCAGGUCGGGAA
RNA 2: CCCGCCCUGCAUCAACUGAAU
modifications: 5'-phosphate
Which Kd ([1]; mismatches and G-U wobbles) does the source give for B36 here?
The Kd was 3.13 ± 1.67 nM.

B37: AtmiR168a variant 5 (dsRNA)
RNA 1: UCGCUUGGUGCAGGUCGGGAA
RNA 2: CCCGACUUGCACCAAGUGAAU
modifications: 5'-phosphate
With B37 as the binder, how does the Kd ([1]; G-U wobbles) read?
The Kd was 0.48 ± 0.17 nM.

What about the Ki ([3]; G-U wobbles) of the same binder?
Its Ki is 1.4 ± 0.2 nM.
